Laboratory results taken from US20130130315A1 (ADVANCECOR, published 2013).

Target: T1, CD133 protein (UniProt O43490 20-865, limits assumed)
T1 construct: whole, on cells; Presented on AC133/293 cells: paraformaldehyde-fixed in the cellular ELISA, unfixed in the phage FACS; also called CD133 antigen; AC133
T1 sequence (looked up): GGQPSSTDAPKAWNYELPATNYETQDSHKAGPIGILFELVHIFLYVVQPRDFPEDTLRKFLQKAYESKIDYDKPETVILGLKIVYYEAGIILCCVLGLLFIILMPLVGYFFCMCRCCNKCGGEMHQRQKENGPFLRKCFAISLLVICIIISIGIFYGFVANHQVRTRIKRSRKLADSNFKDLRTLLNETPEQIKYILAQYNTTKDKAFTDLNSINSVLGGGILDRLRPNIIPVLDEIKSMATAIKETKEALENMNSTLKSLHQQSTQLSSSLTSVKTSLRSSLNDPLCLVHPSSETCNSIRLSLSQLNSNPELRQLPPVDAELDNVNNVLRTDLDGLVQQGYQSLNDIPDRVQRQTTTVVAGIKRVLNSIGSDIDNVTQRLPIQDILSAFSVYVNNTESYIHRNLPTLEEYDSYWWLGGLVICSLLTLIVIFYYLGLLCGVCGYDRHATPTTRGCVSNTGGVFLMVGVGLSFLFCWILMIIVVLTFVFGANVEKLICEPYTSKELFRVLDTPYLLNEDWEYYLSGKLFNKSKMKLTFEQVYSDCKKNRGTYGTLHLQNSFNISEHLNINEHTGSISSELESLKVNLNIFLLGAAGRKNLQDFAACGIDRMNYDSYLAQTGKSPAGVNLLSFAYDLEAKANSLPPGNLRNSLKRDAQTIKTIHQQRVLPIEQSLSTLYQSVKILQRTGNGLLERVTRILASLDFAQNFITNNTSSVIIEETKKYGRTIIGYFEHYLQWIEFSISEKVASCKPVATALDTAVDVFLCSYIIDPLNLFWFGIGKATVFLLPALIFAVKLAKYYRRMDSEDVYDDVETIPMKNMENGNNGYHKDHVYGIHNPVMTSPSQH
Assay: cellular ELISA, threefold dilution series on fixed AC133/293 cells
Description: 1×10⁵ cells in 0.2 ml of medium were added to each well and incubated o/n at 37° C., 5% CO₂ to allow cells to attach to the surface of the plate. The next day wells were washed once with 0.2 ml PBS and fixed with 0.1 ml 2% Paraformaldehyde (in PBS, pH 7.4) for 10-20 min at RT. Wells were washed with PBS-T (PBS+0.1% Tween-20) and blocked with either 1× RotiBlock or 3% milk in PBS-T for 1 hour at RT. After washing with PBS-T, serial dilutions of the respective antibody were added to the wells and incubated at RT for at least one hour while shaking. After washing with PBS-T, 0.1 ml of StrepMAb-Classic-HRP (1:10000 in PBS-T, lba BioTagnology, Göttingen, Germany) or of horseradish peroxidase linked anti-mouse IgG (1:10000 in PBS-T, Dianova, Hamburg, Germany) was added and incubated at RT for one hour with shaking. After washing with PBS-T, 0.1 ml of 1-Step Ultra TMB-ELISA substrate (Thermo Scientific, Braunschweig, Germany) was added and incubated until an adequate blue staining developed. To stop the reaction 0.1 ml 1 M H₂SO₄ was added to each well and absorbance at 450 nm and 595 nm as a reference was measured with an infinite F200 plate reader (TECAN, Männedorf, Switzerland). […] Signals were detected using an anti-mouse IgG-HRP antibody (1:10000 in PBS-T, Dianova, Hamburg, Germany). […]

binding result: no binding
B1: single chain antibody scFv-hl (scFv, not shown: large carriers)
scFv: EVQLQQSGPDLMKPGASVKISCKASGYSFTNYYVHWVKQSLDKSLEWIGYVDPFNGDFNYNQKFKDKATLTVDKSSSTAYMHLSSLTSEDSAVYYCARGGLDWYDTSYWYFDVWGAGTAVTVSSGGGGSGGGGSGGGGSDILMTQSPKSMSMSLGERVTLSCKASENVDTYVSWYQQKPEQSPKVLIYGASNRYTGVPDRFTGSGSATDFSLTISNVQAEDLADYHCGQSYRYPLTFGAGTKLELK
notes: Orientation heavy-light; Produced and purified solely from E. coli
